Results published in paper PMC3057930 (Proteins, 2010).
Marks after values point to notes of the source that are not given here.

Assays:
CaM1-148 [1] = target: T1, CaM1-148 (Paramecium tetraurelia, UniProt P07463); experiment: CaM titration of Fl-βCaNp, fluorescence anisotropy, CaM1-148; format: binding; conditions: CaM1-148, Ca2+-saturated (limiting value), 10 mM CaCl2, 100 nM Fl-βCaNp, stoichiometric titration, upper limit, pH 7.4, 22 °C
CaM1-148 [2] = target: T1, CaM1-148; experiment: Population distribution of calcium ligation species
CaM C-domain vs N-domain = conditions: ref [15]; cited from earlier work
CaN [3] = conditions: CaM binding to CaNA; ref [9],[10]; cited from earlier work
CaN [4] = conditions: cited from earlier work
(Ca^2+)4-CaM1-148 = (Ca^2+)4-CaM1-148 (Paramecium tetraurelia, UniProt P07463); conditions: Ca2+-CaM1-148 bound to melittin; 10 mM CaCl2; ref Sorensen et al [42]; cited from earlier work
15N-(Ca^2+)4-CaM1-148 = experiment: 15N T2 relaxation by NMR; format: physicochemical, Paramecium; conditions: 500 μM 15N-CaM1-148, 10-20% molar excess of peptide; 5 mM CaCl2, 50 mM HEPES, pH 7.4; 22 °C; 800 MHz; excluding mobile termini

## CC[C@H](C)[C@H](NC(=O)[C@H](C)NC(=O)[C@H](CCCNC(=N)N)NC(=O)[C@@H](NC(=O)[C@H](CCCCN)NC(=O)[C@H](CC(N)=O)NC(=O)[C@H](CCCNC(=N)N)NC(=O)[C@@H](NC(=O)[C@@H](NC(=O)[C@H](CCC(=O)O)NC(=O)[C@H](CCCCN)NC(=O)[C@H](CCCNC(=N)N)NC(=O)[C@H](C)N)[C@@H](C)CC)[C@@H](C)CC)[C@@H](C)CC)C(=O)NCC(=O)N[C@@H](CCCCN)C(=O)N[C@@H](CCSC)C(=O)N[C@@H](C)C(=O)N[C@@H](CCCNC(=N)N)C(=O)N[C@H](C(=O)N[C@@H](Cc1ccccc1)C(=O)N[C@@H](CO)C(=O)N[C@H](C(=O)N[C@@H](CC(C)C)C(=O)N[C@@H](CCCNC(=N)N)C(=O)O)C(C)C)C(C)C [βCaNp]
CaM1-148 [1]
  Kd: ≤ 1 nM
CaM1-148 [2]; CaM1-148, presence of βCaNp
  cooperativity term kI–II: 19.90 M⁻¹

## CaM1-148: full-length Paramecium CaM, residues 1-148
CaM C-domain vs N-domain
  calcium affinity of C-domain relative to N-domain: ~ 25 fold
CaM1-148 [2]; CaM1-148, absence of βCaNp
  cooperativity term kIII–IV: 54.39 M⁻¹
  cooperativity term kI–II: 1.73 M⁻¹

## Calmodulin [CaM]
CaN [3]
  increase of phosphatase activity of CaN: 10 fold
CaN [4]; ref [35]
  dissociation constant of (Ca2+)4-CaM from CaN (range in words): low nM range
CaN [4]; ref [36]
  Kd of full-length CaM from CaN (range in words): pM range
CaM1-148 [2]; CaM alone, simulation
  Ca2+ concentration of maximal population of intermediate (0011): 2 µM
  maximal population of intermediate (0011): 70%

## Mammalian CaM [mCaM]
CaM C-domain vs N-domain
  calcium affinity of C-domain relative to N-domain: about 10 fold

## Melittin: another peptide that forms a 1:1 complex with CaM (GIGAVLKVLTTGLPALISWIKRKRQQG)
(Ca^2+)4-CaM1-148
  Stokes Radius: 22.94 ± 0.32 ^f Å
15N-(Ca^2+)4-CaM1-148
  Average T2: 0.050 ± 0.006 s
